Data on 22 sequences can be found in the DeepSol protein solubility set.

The data set can be described thus: soluble on expression in E. coli; label from the status in PepcDB or PDB records.
Regarding “MGSDKIHHHHHHMPRIHFNPDGRRSPTEFEPVTVHHRKPPLDGIISSHRHNWSQLTCPLKGSMRVTTERQVWTVTSFRAVWIPPGVDHELTMVGATEFHAVFIDPQHSPLPANQCCVVDVSPLMRELMQWLGADYGPATDHSRRLTDVLLEEVRRATRRTSALVLPGDRRLKSLCEALMEDPGSTLTLGEWAHRTGASERTLARLFQIELGTTFGAWRQQLRLSCAVDLLRSGLSLSRIAADLGYADSAAFSTMFKRAFGVAPSRYHASSAQAMN”, the “soluble on expression in E. coli” value is on record as “not soluble”.
Take “MRRLLKEQFEAELPEDIRFYMGGKSRVYAYKSCEFDEIASHRGIYFGTIERDGLRLSIEGSFIAGKLAKKNVIELDEESFGRWMRGEDIEADVKGYCIVKHGSYFAGCGKGNGRVLRNFVPKDRRVID”: the “soluble on expression in E. coli” value was “not soluble”.
For “MGSDKIHHHHHHMVNQGVDISVIAPQSITRHLLKGDPLLAVDSEKKIGNRSYHIYRPKYLTLGNAPRWIQNILEWLRYKVILRVITKHNLKPDAIYGHFWQNAFDIRKYCYKNGTPLFVACGEGDTALEDLVNSLSFAEKKRLSNAVTGVISVSSLNKRKCIEYGLSKAEDIVVLPNSVNSSLFSDINPLNRNSLGVFDDDFLIVFTGGFIHRKGASRLAAAIDKIGDKRIKVIFIGKPVPGDDATPHCNGIVHIGALEHDDIPSYLSAADVFCLPTLNEGCSNAIVEAIACGLPIISSNLPFNDDILDSSNALLVNPESVDDIASAIKQLMDNSDLRQKLAEGSKEKAKSLRIEFRAKKIIEFINRQMQK”, the “soluble on expression in E. coli” value is recorded as “not soluble”.
With “MIFEMMGEKFDKNAPIAMQSDVFPRFIINCRDGRTIFKENDTLEFELIIFDNLTELFIQYIYVFETIGQSGLGPEKARYELLSVSDGKGNIIYKNTLLTGNAPVSDIREYISSRLDYCLNNRKNISRMTLLSSVMLNSDCKNGNKKVFFFSAEAFSYSIRERLSRLNVLEKEDEEKLNELLSDKRIINGINMKLTKIDYYIQNEQKTVTFPRFKGYIVFDIERINSYLDYFFACEKLCIGQNILLGFGRYVMG” the entry was “not soluble”; with “MGSDKIHHHHHHMEPTFQPSRSAIPVLSVSGVGKTYAEPVLADVTLTLAPGEALALTGENGAGKSTLSKIIGGLVDPTTGTMQLGGQAYAPASRTQAEALGVRMVMQELNLLPTLTVAENLFLNRLPRRFGIIDRARLHDDAQAAMARVGLDAIDPDTPVGALGIGHQQMVEIARNLIGDCRVLILDEPTAMLTAREVELLFEQIDRLKAHGVAIVYISHRLDELARVAERVAVLRDGRLVHVGDMAATTSDGLVTLMVGREIGEHIDLGPRRIGAPRLAVSGMTRGTAVQDVSLEVRSGEIFGISGLIGAGRTELLRLIYGADTPDAGMISVGDPLKPARIASPVDAVRHGIALITEDRKGEGLLLSQSVTSNVSLGQLEQLARGGIVNTARETALAEQQIDALRIRTHGAAQPVGELSGGNQQKVVIGRWLARDMGVLLFDEPTRGIDVGAKFEIYTLMGALARDGRALVVVSSDLRELMLICDRIGVMSAGRMTAVFERGNWTQDALLAAAFAGFGRDALPEGARHLDAQAAPRAASGTSTTGRQQ”, “not soluble”; with “MGSDKIHHHHHHMDGHRLIQPLHARTADVGGIPVNRVMPQRGRRLIGAWCFLDHAGPATFTVGAGGMRVGSHPHIGLQTFTWMLAGEIMHHDSLGNAQRIRPGELNLMTAGRGIAHTEESILESGQLHAAQLWITLPHATRHTSPRFDHYPDLPRWSEQGTDVTLLRGDFQGREAPTHAFSPLVGLDIVSPDATQLTLPARTDFEYGVLLLEGSLTIERDRFDTNEMAYLGSGLDEITLAMEAGTRALMLGGEPLNEDILIWWNFVGHSKAEIAEAQKEWEEWEAGSDRFGDVPEFDGERIMPPPIPWKVTAN”, “not soluble”.
Then “MAFRVLVIGGYGNFGSLICNHLAMMPDIELVISGRDPRKLAEKVAALQTLAGRFCQSWCVDIMQDGAGSELGELGIDLLIHTAGPFQGQSYAVARHCIAAGVNYCDLSDCRTFVSGIATLDALAREAGVCVLSGCSSVPTLSAAIIDQHRQRFLRIDSIEHGISSAAKMPGLSTVR”, with “not soluble”; and “GMSETITFPPLMTGEAAGPGQDPFDLACQKAELGVDAGLVVYELGTDVLRAALVLAPEVPLAKAMAMLPVCGVGFQNALGALAPPEVAVHLDWNGALRINGARCGRLRIAASTDDPDTQPDWLVVGLDLPLWPEGDGGETPDETALYAEGCADVAAPRLLESWARHCLHWINRWDEGELETIHGEWRGLAHGMGEARTEAGRSGTFLGVDEDFGMLLRDETTTHLIPLTTVLVQD”, with “soluble”.
With “MGQVSAASTILINAEPTATLDALADYETVRPKILSPHYSEYQVLEGGKGRGTVAKWRLQATQSRVRDVQVNVDVAGHTVIEKDMNSSMVTNWTVAPAGPGSSVTVKTTWTGAGGVKGFFEKTFAPLGLKKIQAEVLSNLKTELEGDA” the entry was “soluble”; with “MGSDKIHHHHHHMHLGKINEDVFNKVIYPHLGERRKEVVVGPQHGVDTGAIDLQDGRVLVVKTDPVFIVPQFGFKKAAWFAVHILASDVMTSGIPPEYAVIDLNLPPRIKDEEFEEMWIGIHEALKEIGVMVVGGHTGVYEGTDYPMVGGFTMFGIGEKERLGMPSKVKVGDSVIMTKGPAIEATGLLTNLYPEYFKQRLSNEIFNEAYNMYWKMSCWKDGLIASRIGIHMMHDATEGGVFGALTEVARASSKGMRIYEERFFINRAVREVTKLVNIDPWISISEGTMIIVTDKGEEVRNTLIREGIEAEIIGEIVDQSGEVTMVKKDGSRVKIEHPLEDPFWRAFFDLASKT”, “not soluble”; with “MNDFNTAFANIDEKAIPNDEKGAANGVATLNSSGKLAQMPSASDVGALPITGGEMQGALKLKANQYGGSGPADEKYALDCQNSNIVNVNRILTADPAGSASEGWGFQREDDPDAYDVIWASNGTLYFTPGFKYNTPPYPANQRVLATTDNIALTNYLRQEYNKLKESEGTPTLNDIINGFGFCYNDSSNGAGLDGTYLTVSGMLDNKYRLQLLGQYNGSNWLAYRTRNGDEQSWNPWHKVLTDNINAAISARHQYTSSSYPQIYGNGILQLGGDSRNEYGVVLRSNGTDEANAFRPSVNAGTTGHLYLGVANQKWRAVFAQNGTIQTSDRNAKHDITDLDPEKITAFIMGLKPSSYVFNDADSGRTHWGLISQDIEELFPQLGMTSMDFAGFIKSPKTEDYYEDVPETVTDEETGEEKTVTRKELKTRTVEGEYIYSLRYDEFLEHHHHHH”, “soluble”.
As for “MSLNLATLQSQFAKALHYQALGEDCDIASDEFTADERIQIYRNNFIVSLSEVLSATYPMVEALLGEECFEQIARQHVLSYPLKEGNVVHYGEGFQDTIMQFSQVIAQAPYSPEVARFEWHIDLARQAQYEQSNAAELKPLALLGEVSEEQQPALVLHLKKGCRSFDSNYAVFDLFSAIQTGQFEQLNINQLQQGVISIQANGEALCHALDADVFQLLQCLEQKQSLSEIPEVLLAHLNRIMALDIVDGFTLQSIEGHHHHHH”, the “soluble on expression in E. coli” value is on record as “soluble”.
With “MYDKLLPMERIHIEVFEPFNGEAIEGKYSYVLLCRDYRSSFMWLLPLKSTKFKHLIPVVSSLFLTFARVPIFVTSSTLDKDDLYDICEEIASKYGLRIGLGLKSSARFHTGGILCIQYALNSYKKECLADWGKCLRYGPYRFNRRRNKRTKRK” the entry was “soluble”.
Consider “IGDVNLTLRGNFTYSKSEILEYDEEYSNYPYKSQRGFRVDQTRGLIALGLFKDYDDIRNSPKQSWGDVMPGDIKYADVNGDGYVNDNDIVPIGATTRPNLVYGFGLSGQWKGIDINVLFQGSGKSTFCIDGPTVYPFENGDWGNILTDVVKSNRWILGENEDPNAKYPRLSYGGNSNNYRASTYWLRNGSYLRLKNLEIGYTIPKSLVNKMHLNNIRIYFMGTNLVTFSSFKLWDPELGSSNGQKYPLSKSYTLGLTINI”, for which the “soluble on expression in E. coli” value is recorded as “not soluble”.
Then “MKSLVKVSLAALALAFAVSAYAAEKELIVATDTAFVPFEFKQGDKYVGFDIDLWDAIAKKLDLKYTLKPMDFSGIIPALQTKNVDLALAGITITDERKKAVDFSDGYYNSGLLVMVKADNNDIKSEADLQGKVLAVKSGTGSVDYAKANIKTKDLRQFPNIDNAYLELGTGRADAVLHDTPNILYFIKTAGNGQFKAVGESIKAQQYGVAFPQGSDLREKVNAALKSLKEDGTYAEIYKKWFGVEPK”, with “not soluble”; and “MAHHHHHHMDSEETINLAVKYAKEAVVEDEKKNYKEALNLYIQSLQYFNFFCKYEKNSNIRDLILKKMEVYMTRAENLKEMLNKKDSIENKEKITNTEETKENMKKQIKQFILNKNNNIKWSDVCGLETAKEVLKEAIIFPLKFPKLFNSSTLPYKGILLYGPPGTGKTFLALACSNECNMNFFNVSSSDLVSKYQGESEKYIKCLFETAKEHSPAIIFIDEIDSLCGSRTDGENESTRRIKTEFLINMSGLTNYKNNIIVMGATNTPWSLDSGFRRRFEKRIYIPLPNIYARAKIFEKYINQNENNNISKEDIKQFATLTENYTGADIDILCRDAVYMPVKKCLLSKFFKQVKKNNKICYTPCSPGDSDPTKVEKNVMSLSENELSLPPLTVQDFKTAISNAKPSLSVDDIKKYEEWTHQYGMNGT”, with “not soluble”; and “MLEEYEKKRDFNKTSEPPARGEEKNSDKPVFVVQRHDATNLHYDFRLEMDGVLKSWAVPKEPPKSPGTRRLAIETEDHPLGYADFEGEIPEGQYGAGRVEIWDRGTFELLKRNEKEIIITLHGEELEGDYVLIKTKYGKEDKGWLFFKKKTGLEHHHHHH”, with “soluble”.
With “MAHHHHHHMSEARQIQSMIDFIEREAQEKAEELEAAAQEEYDVEKMRLVEAEKAKIRAMAEKKLKQVDVDRRVARANYSKVQRMRVMEERARTMEKLHEQTRQKIVAMVNNPPQYKPMLVRLIHQSLMSIRTDAVVQCRKEDEAEVVRSIPELERWYKEKTGATISIQTSKTYLDTAEAWGGVVVKSTDGRVVCNNTLSYRTKTCFDEQLPTVRFHLFNPDAPL” the entry was “soluble”; with “MSLNIPLSGIIPPLVTPLLDDDVLDVEGLQRLIEHLIAGGVHALFVLGTTGESQSLSYKLRMEMIKNTCRIAKGRLPVLVCISDTSIVESVNLACLAADHGADAVVSAPPYYFATGQPELIEFYEHLLPQLPLPLFLYNMPTHTKVNFAPATIQRIAENPGVIGFKDSSANTVYFQSVMYAMKDNPDFSMLVGPEEIMAESVLLGAHGGVNGGANMFPELYVSLYNAAKNADMEEVRRLQEKVMQISATIYTVGQHGSSYLKGLKCALSLLGICSDYVAAPFHKFEQRERGKIWKALQNLGVDEGHHHHHH”, “soluble”.
Then “MQFWRKQMSEIQHFSQQDIEILGEQTLYEGFFTLKRIQFKHKLFAGGQSGVVTRELLIKGAASAVIAYDPKEDSVILVEQVRIGAAYHPESHRSPWLLELIAGMVEKGEKPEDVALRESEEEAGIQVKNLTHCLSVWDSPGGIVERIHLFAGEVDSAQAKGIHGLAEENEDIKVHVVKREQAYQWMCEGKIDNGIAVIGLQWLQLNYAQLQQSWKRS”, with “not soluble”; and “MGSDKIHHHHHHMIVKDYRREFEALAKAYEKAGGDVSKFLDRRIASIIISGDKVIGLNGVEGVELTPYRIENGVQVDMRIKEGVVVEYPVHVCTGYLEKKGLQRVVFNIRLEKNAKAIFVAHCVFPWTEDFTHDALMNVELEEGAWMEYHDEHTHSETGSINLITRSIARVGERAVYRNTFTLVKTRIGTLRVFMDASLEKDAVGELYTKVKAVEDDDVEVKEILRLNGMGARGLAKTNAVAIDRAKVSVVNEVYGNAPHTRGHVECLEIAKGDGVDVRALPVLVVKNDSSELTHEASIGRVNAKQLETLMAKGLTEEEATEMIIKGILT”, with “not soluble”; and “EQMQSEFFYTDRKKIKWSLPSQPKVDIVELELLVARFIGEEKATKCFEKFHSMNQTKDNKKFNEAILFHAENTLARVLGSASAKLVTSLAISSRGMAFDQVAKLVEDNSTQQLEFSRTVLQSAIENVSEGISVIDSELKLVAWNKQYLDIFSYPEAFIYIGCPISQLIHFNLSQQGYFAKDIDLRVK”, with “not soluble”.
